From article PMC13393415, “The bacterial SOS response promotes the expression of the transposase encoded by ISCR mobile genetic elements” come the findings set out here.

Series [1] has as its target T1, His6-LexA (Escherichia coli) (UniProt P0A7C2).
T1 sequence: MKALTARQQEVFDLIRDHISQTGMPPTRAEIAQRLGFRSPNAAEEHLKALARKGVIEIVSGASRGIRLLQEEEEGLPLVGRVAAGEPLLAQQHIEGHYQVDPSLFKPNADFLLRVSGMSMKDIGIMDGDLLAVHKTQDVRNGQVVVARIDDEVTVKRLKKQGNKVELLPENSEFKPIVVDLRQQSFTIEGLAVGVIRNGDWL
The series can be described thus: EMSA. As to conditions: 10 mM HEPES pH 8, 10 mM Tris-HCl pH 8, 50 mM KCl, 1 mM EDTA; on ice 20 min; 40 ng DNA, 0-600 ng LexA in 10 uL; 6% native Tris-glycine PAGE, SYBR Green.

In another series the target is His6-LexA (Escherichia coli, UniProt P0A7C2 1-202). The series can be described thus: EMSA; 10 mM HEPES pH 8, 10 mM Tris-HCl pH 8, 50 mM KCl, 1 mM EDTA; on ice 20 min; 40 ng DNA, 0-600 ng LexA in 10 uL; 6% native Tris-glycine PAGE, SYBR Green. The conditions noted are these: protein: recombinant; tags: N-terminal His6; blunt.

Positions count from the first letter of the chain named.

Take “CCGGAATTCGGGAGTGACGGGCACTGGCTGGCAATGTCTAGCAACGGCAGGCATTTCGGCTGAGGGTAAAAGAACTTTCCGCTAAGCGATAGACTGTATGTAAACACAGTATTGCAAGGACGCGGAACATGCCTCATGTGGCGGCCAGGACGGCCAGCCGGGATCGGGATACTGGTCGTTACCAGAGCCACCGACCCGAGCAAACCCTT (double strand) [Prcr2]”: in series [1], the binding entry is “binds”.
Same read-out and setting: as for “CAACCGGTAGTGGCTGATAACAACTCGTGAGGGCTATTGCGGGTTAAGCATTTAGCGATGTCTAGGGCCAGACTGGACGTCTGAACGCAAGCCGCTGATACTGTACATAACCACAGTATCAGCGGAGGATACCCATGTCGCTGGCAAGGAACGCCACGGCGAGTCAATCGCCCACTCAAACAAACGGTTACGAACGCCACCAACCCGACCAGACGCTG (double strand) [Prcr1]”, the entry is “binds”.

B1: Prcr8 (dsDNA)
DNA 1: GGCGACGGTTCGGGCCTTGTGCTTTGCGTACCCAAACAATCGCCGCAGAATACTGTGCATTTGTACAGCATTCATGTCAGCCACTTCCAAGCCCAAGCTCTACAACCCACGCCACCCCGA
DNA 2: TCGGGGTGGCGTGGGTTGTAGAGCTTGGGCTTGGAAGTGGCTGACATGAATGCTGTACAAATGCACAGTATTCTGCGGCGATTGTTTGGGTACGCAAAGCACAAGGCCCGAACCGTCGCC
As for B1, the binding result in the series with His6-LexA is listed as “binds”.

B2: Prcr8 L (dsDNA)
DNA 1: B1 DNA 1 with C66A, A67C, G68T
DNA 2: B1 DNA 2 with C53A, T54G, G55T
modifications: LexA box mutated (terminal ACAG to AACT)
In the case of B2, in the series with His6-LexA, the binding result is “no binding”.
